For orientation: Kd means the constant that tells how readily two partners part at equilibrium.

The record followed here is US20140105889A1 (published 2014).

In test [1] the target is T1, human FcγRIIa(R) (human, UniProt P12318 36-217).
T1 construct: also called FcgRIIaR; FcγRIIa type R
T1 chain: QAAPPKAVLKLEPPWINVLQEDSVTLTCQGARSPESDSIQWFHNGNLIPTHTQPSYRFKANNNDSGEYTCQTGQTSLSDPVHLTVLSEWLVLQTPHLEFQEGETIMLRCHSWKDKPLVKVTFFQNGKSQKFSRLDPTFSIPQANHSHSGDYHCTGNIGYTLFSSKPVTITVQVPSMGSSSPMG
Nature of the test: SPR (Biacore), captured antibody, FcγR analyte; bound/captured amount vs control x100. For orientation: Surface plasmon resonance follows binding to a sensor surface in real time, without labels.
Procedure: Interaction between each modified antibody and Fcγ receptor prepared in the manner described above was analyzed using the Biacore T100 (GE Healthcare), Biacore T200 (GE Healthcare), Biacore A100 or Biacore 4000. HBS-EP+ (GE Healthcare) was used for the running buffer, and measurements were carried out at 25° C. The chips used were chips in which antigen peptides, Protein A (Thermo Scientific), Protein A/G (Thermo Scientific) or Protein L (ACTIGEN or BioVision) were immobilized on the Series S Sensor Chip CM5 (GE Healthcare) or Series S Sensor Chip CM4 (GE Healthcare) by amine coupling, or chips in which preliminarily biotinylated antigen peptides were allowed to interact and then immobilized on the Series S Sensor Chip SA (certified) (GE Healthcare). The target antibodies were captured on these sensor chips, Fcγ receptor diluted with the running buffer was allowed to interact, followed by measurement of the amount of bound antibody. The amounts bound were compared between antibodies. However, since the amount of Fcγ receptor bound depends on the amount of captured antibody, the values used for comparison were first corrected by dividing the amount of Fcγ receptor bound by the captured amount of each antibody. Through reaction with 10 mM glycine-HCl at pH 1.5, the sensor chips were regenerated by washing off antibody captured on the sensor chips and used repeatedly.

The target in test [2] is T2, human FcγRIIa type H (allotype H131) (human, UniProt P12318 36-217).
T2 construct: also called FcγRIIaH; FcγRIIa(H)
T2 sequence: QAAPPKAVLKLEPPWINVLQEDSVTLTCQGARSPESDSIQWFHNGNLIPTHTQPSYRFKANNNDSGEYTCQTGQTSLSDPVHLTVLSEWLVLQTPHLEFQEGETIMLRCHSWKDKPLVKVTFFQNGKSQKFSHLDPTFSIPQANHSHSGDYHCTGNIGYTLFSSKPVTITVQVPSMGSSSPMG
Nature of the test: SPR (Biacore), antibody captured on the chip, FcγR as analyte.

The target in test [3] is T3, human FcγRIIIa type V (allotype V158) (human, UniProt P08637 17-208, limits assumed).
T3 construct: the assay used allotype V158; also called FcγRIIIaV; FcγRIIIa(V)
The test is described as above.

The target of test [4] is T4, human FcγRIIa type R (allotype R131) (human, UniProt P12318 36-217).
T4 construct: also called FcγRIIaR; FcγRIIa(R)
T4 chain: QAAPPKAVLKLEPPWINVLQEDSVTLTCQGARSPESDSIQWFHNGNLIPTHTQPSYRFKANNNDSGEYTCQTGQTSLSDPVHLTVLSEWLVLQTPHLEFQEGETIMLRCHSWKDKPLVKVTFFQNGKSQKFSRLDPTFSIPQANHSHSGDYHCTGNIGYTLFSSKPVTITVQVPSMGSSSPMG
The test is described as above.

In test [5] the target is T5, human FcγRIIb (human, UniProt P31994 43-217).
T5 construct: also called FcγIIB
T5 sequence: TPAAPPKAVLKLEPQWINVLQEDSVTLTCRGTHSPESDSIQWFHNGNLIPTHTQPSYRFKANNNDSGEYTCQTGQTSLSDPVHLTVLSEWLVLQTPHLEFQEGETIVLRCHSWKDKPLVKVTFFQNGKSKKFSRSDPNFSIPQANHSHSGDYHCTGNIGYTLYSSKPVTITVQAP
Nature of the test: SPR (Biacore); KD of parent IL6R-B3/IL6R-L for FcγRIIb divided by KD of the variant for FcγRIIb.
Source text: Furthermore, KD(IIaR)/KD(IIb) and KD(IIaH)/KD(IIb) in the table respectively represent the value obtained by dividing the KD value of each variant for FcγRIIaR by the KD value of each variant for FcγRIIb, and the value obtained by dividing the KD value of each variant for FcγRIIaH by the KD value of each variant for FcγRIIb.

In test [6] the target is T6, human FcγRIIb (human, UniProt P31994 43-217, limits assumed).
T6 construct: also called hFcgRIIb
T6 sequence: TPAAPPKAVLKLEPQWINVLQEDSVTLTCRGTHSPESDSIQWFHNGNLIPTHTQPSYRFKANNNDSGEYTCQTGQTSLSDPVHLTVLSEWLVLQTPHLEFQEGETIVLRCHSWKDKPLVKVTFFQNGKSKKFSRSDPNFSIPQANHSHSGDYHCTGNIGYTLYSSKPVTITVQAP
Nature of the test: SPR (Biacore) KD; ratio against the KD for FcγRIIaR.

Test [7] addresses T6, human FcγRIIb. Nature of the test: SPR (Biacore) KD; ratio against the KD for FcγRIIaH.
Test [8] deals with T7, human FcγRIIa(H) (human, UniProt P12318 36-217).
T7 construct: also called hFcgRIIa(H); FcγRIIa type H
T7 sequence: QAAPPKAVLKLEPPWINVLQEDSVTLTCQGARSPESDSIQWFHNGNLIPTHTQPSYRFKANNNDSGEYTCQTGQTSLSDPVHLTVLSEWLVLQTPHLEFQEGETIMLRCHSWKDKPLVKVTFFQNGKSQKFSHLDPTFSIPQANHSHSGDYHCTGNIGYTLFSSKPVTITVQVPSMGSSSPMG
Nature of the test: SPR (Biacore T100), antibody captured by Protein A, FcγR at 2 µmol/L, 25 C.
Procedure: (§1) Next, interaction between these antibodies and FcγR was analyzed kinetically using the Biacore T100 (GE Healthcare). The interaction was measured at a temperature of 25° C. using HBS-EP+ (GE Healthcare) for the running buffer. The Series S Sensor Chip CM5 (GE Healthcare) was used after immobilizing Protein A by amine coupling. […] Antibody captured on the chip was washed by allowing 10 mM glycine-HCl (pH 1.5) to react following measurement. The chip regenerated in this manner was used repeatedly. The dissociation constant KD (mol/L) was calculated from the association rate constant ka (L/mol/s) and dissociation rate constant kd (1/s) as calculated by global-fitting the measurement results with a 1:1 Langmuir binding model using the Biacore

The target in test [9] is T8, human FcγRIIIa(F) (human, UniProt P08637 17-208, limits assumed).
T8 construct: also called hFcgRIIIa(F)
Described as above.
Procedure: as §1

T8 sequence (P08637 other isoform, or with tags, fused parts or gaps limits assumed): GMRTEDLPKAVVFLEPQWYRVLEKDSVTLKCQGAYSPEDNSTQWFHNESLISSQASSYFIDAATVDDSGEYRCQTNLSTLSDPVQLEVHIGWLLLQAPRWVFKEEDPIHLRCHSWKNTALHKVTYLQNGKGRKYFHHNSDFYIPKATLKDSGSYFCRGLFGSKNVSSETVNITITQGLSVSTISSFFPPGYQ
T3 sequence (P08637 other isoform, or with tags, fused parts or gaps limits assumed): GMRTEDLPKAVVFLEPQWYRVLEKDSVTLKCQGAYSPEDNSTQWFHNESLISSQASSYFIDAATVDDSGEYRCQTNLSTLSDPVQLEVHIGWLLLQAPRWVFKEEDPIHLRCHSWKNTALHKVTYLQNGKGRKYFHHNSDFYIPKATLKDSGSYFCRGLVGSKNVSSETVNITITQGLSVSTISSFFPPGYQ

B1: GpH7-B3 G237P/GpL16-k0 (antibody, human IgG1)
heavy: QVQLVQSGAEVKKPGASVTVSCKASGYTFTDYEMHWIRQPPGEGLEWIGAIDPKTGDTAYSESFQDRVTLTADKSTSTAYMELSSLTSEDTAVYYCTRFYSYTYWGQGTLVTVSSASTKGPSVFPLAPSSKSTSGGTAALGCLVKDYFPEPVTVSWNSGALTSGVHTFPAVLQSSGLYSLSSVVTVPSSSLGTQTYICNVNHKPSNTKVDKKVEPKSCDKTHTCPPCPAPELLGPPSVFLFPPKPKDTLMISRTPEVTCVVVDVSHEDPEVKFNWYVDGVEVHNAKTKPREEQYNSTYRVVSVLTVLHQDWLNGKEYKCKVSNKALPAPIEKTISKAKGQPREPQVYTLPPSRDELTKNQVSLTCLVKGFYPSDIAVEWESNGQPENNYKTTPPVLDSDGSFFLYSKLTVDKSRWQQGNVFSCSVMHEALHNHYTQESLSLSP
light: DIVMTQSPLSLPVTPGEPASISCQASESLVHSNRNTYLHWYLQKPGQSPQLLIYKVSNRFSGVPDRFSGSGSGTDFTLKISRVEAEDVGVYYCSQNTHVPPTFGQGTKVEIE
notes: B3 variant of anti-glypican-3 IgG1; substitution in EU numbering; also called B3 variant
Take B1: the relative binding activity in test [1] is 8 % of GpH7-B3/GpL16-k0.

B2: GpH7-B3 S239R/GpL16-k0 (antibody, human IgG1)
heavy: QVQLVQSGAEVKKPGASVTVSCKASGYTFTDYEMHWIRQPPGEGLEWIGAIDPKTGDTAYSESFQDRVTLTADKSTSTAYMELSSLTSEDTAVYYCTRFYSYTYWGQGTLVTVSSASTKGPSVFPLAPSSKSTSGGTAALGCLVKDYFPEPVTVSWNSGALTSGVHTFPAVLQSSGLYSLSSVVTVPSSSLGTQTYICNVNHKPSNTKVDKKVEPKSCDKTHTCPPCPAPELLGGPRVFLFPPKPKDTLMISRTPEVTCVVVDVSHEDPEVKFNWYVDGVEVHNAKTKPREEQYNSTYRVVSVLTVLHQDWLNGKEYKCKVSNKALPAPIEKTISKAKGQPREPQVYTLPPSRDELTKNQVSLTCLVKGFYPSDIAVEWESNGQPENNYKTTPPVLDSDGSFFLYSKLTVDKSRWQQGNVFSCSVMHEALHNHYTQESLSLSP
light: DIVMTQSPLSLPVTPGEPASISCQASESLVHSNRNTYLHWYLQKPGQSPQLLIYKVSNRFSGVPDRFSGSGSGTDFTLKISRVEAEDVGVYYCSQNTHVPPTFGQGTKVEIE
notes: as for B1
In the case of B2, the relative binding activity in [1] is 8 % of GpH7-B3/GpL16-k0.

B3: IL6R-BP185/IL6R-L (antibody, human IgG1)
heavy: QVQLQESGPGLVKPSETLSLTCAVSGHSISHDHAWSWVRQPPGEGLEWIGFISYSGITNYNPSLQGRVTISRDNSKNTLYLQMNSLRAEDTAVYYCARSLARTTAMDYWGEGTLVTVSSASTKGPSVFPLAPSSKSTSGGTAALGCLVKDYFPEPVTVSWNSGALTSGVHTFPAVLQSSGLYSLSSVVTVPSSSLGTQTYICNVNHKPSNTKVDKKVEPKSCDKTHTCPPCPAPDYLGDDSVFLFPPKPKDTLMISRTPEVTCVVVDVSHEDGEVKFNWYVDGVEVHNAKTKPREEQYNSTYRVVSVLTVLHQDWLNGKEYKCKVSNAALPKPIEKTISKAKGQPREPQVYTLPPSRDELTKNQVSLTCLVKGFYPSDIAVEWESNGQPENNYKTTPPVLDSDGSFFLYSKLTVDKSRWQQGNVFSCSVMHEALHNHYTQESLSLSP
light: DIQMTQSPSSLSASVGDRVTITCRASQDISSYLNWYQQKPGKAPKLLIYYTSRLHSGVPSRFSGSGSGTDFTFTISSLQPEDIATYYCQQGNTLPYTFGQGTKVEIK
notes: Anti-human IL-6 receptor human IgG1 variant; copies: 2 + 2
On to B3, for which the Kd worked out at 7.3 µM in test [2], 36 µM in test [3] and 0.68 µM in test [4]. In [5], the “KD(IIb) of the parent polypeptide/KD(IIb) of the altered polypeptide” value came to 44.5.

B4: IL6R-F11/IL6R-L (antibody, human IgG1)
heavy: not shown
light: DIQMTQSPSSLSASVGDRVTITCRASQDISSYLNWYQQKPGKAPKLLIYYTSRLHSGVPSRFSGSGSGTDFTFTISSLQPEDIATYYCQQGNTLPYTFGQGTKVEIK
notes: copies: 2 + 2
As to B4, in [6], the “KD value for FcγRIIaR/KD value for FcγRIIb” value amounted to 0.7. Moreover, the “KD value for FcγRIIaH/KD value for FcγRIIb” value in test [7] came out at 0.7.

B5: IgG1-v1 (antibody)
heavy: not shown
light: DIQMTQSPSSLSASVGDRVTITCRASQDISSYLNWYQQKPGKAPKLLIYYTSRLHSGVPSRFSGSGSGTDFTFTISSLQPEDIATYYCQQGNTLPYTFGQGTKVEIK
notes: copies: 2 + 2
B5: the “binding (RU)” value in test [8] and in test [9] was approximately 2.5 RU in each case.
